Results on 1 substance are retold here after EP2360247A1.

Where “and” joins values, the source holds several entries; their conditions need not be identical. Identical values can stand only once.

Holding throughout (experiment): cell-based or functional assay
Assay [1] deals with Savinase® (subtilisin 309, BLSAVI) (B. Lentus) (UniProt P29600).
For assay [2], the target named is subtilisin 309 variant L217LP+S99SD+S99A (B. Lentus) (UniProt P29600).
In assay [3] the target is subtilisin 309 variant L42LN (B. Lentus) (UniProt P29600).
For assay [4], the target named is subtilisin 309 variant S99D+S101R+S103A+V104I+G160S+A194P+V199M+V205I+*216aD (B. Lentus) (UniProt P29600).
In assay [5] the target is subtilisin 309 variant S99D+S101R+S103A+V104I+G160S+A194P+V199M+V205I+*216aE (B. Lentus) (UniProt P29600).
For assay [6], the target named is subtilisin 309 variant S99SD+S99A+N155NA (B. Lentus) (UniProt P29600).
Assay [7] deals with subtilisin 309 variant S99SD+S99A+N155ND (B. Lentus) (UniProt P29600).
The target in assay [8] is subtilisin 309 variant S99SD+S99A+N155NR (B. Lentus) (UniProt P29600).
Assay [9] addresses subtilisin 309 variant S99SD+S99A+S216SDP (B. Lentus) (UniProt P29600).

As to “trypsin inhibitor type IV-0 (Sigma T-1886) (from UniProt P10184 69-517)”, the Residual Activity (%) was under 5% in [1]; 97% in [2]; 69.2% in assay [3]; 24% in [4]; 25.4% in assay [5]; 7.4% in [6]. In addition, the Residual Activity (%) was 10.7% and 7.1% in [7]; 6.5% in assay [8]; 35% in [9].
